Patent publication US20200062844A1 (Regeneron, published 2020)

What was measured:
hFcεR1α.MMH [1] = biological target: T1, hFcεR1α.MMH (human); experiment: SPR (Biacore 8k), antibody captured on anti-human Fc, hFcεR1α.MMH injected, 25°C
T1 construct: also called ectodomain of human FcεR1α with C-term myc-myc-6×His tag
T1 chain: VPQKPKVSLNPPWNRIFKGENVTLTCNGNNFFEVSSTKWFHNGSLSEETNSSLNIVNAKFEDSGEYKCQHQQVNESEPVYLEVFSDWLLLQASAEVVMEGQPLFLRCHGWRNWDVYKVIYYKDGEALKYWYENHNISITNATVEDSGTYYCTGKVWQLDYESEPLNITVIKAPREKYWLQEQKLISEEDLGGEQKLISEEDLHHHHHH
Experimental: (§1) Equilibrium dissociation constants (KD) for human or cynomolgus FcεR1α ectodomain binding to purified anti-FcεR1α monoclonal antibodies (mAbs) and CD3×FcεR1α bispecific antibodies (bsAbs) were determined using a real-time surface plasmon resonance biosensor (SPR-Biacore), Biacore 8k. All binding studies were performed in 10 mM HEPES, 150 mM NaCl, 3 mM EDTA, and 0.05% v/v surfactant Tween-20, pH 7.4 (HBS-ET) running buffer at 25° C. and 37° C.
(§2) The Biacore CM4 sensor surface was first derivatized by amine coupling with a monoclonal mouse anti-human Fc antibody to capture approximately 500-900 RUs anti-FcεR1α monoclonal antibodies or anti-CD3×FcεR1α bispecific monoclonal antibodies. 1 RU (response unit) represents 1 pg of protein per mm², as defined by the manufacturer. The ectodomain of human and cynomolgus FcεR1α reagents were expressed with a C-term myc-myc-6×His tag-hFcεR1α.MMH (SEQ ID NO: 57) and mfFcεR1α.MMH (SEQ ID NO: 58). Different concentrations of FcεR1α reagents were prepared in HBS-ET running buffer (600 nM-7.4 nM; serially diluted by 3-fold) and injected over anti-human Fc captured anti-FcεR1α monoclonal antibodies or anti-CD3×FcεR1α bispecific monoclonal antibodies surfaces for 1 minute at a flow rate of 30 μL/minute. The dissociation of bound FcεR1α reagents was monitored for 4 minutes in HBS-ET running buffer. Association (kₐ) and dissociation (kd) rate constants were determined by fitting the real-time binding sensorgrams to a 1:1 binding model with mass transport limitation using Biacore 8k evaluation software. Binding dissociation equilibrium constants (KD) and dissociative half-lives (t½) were calculated from the kinetic rate constants as: […]

mfFcεR1α.MMH [2] = biological target: T2, mfFcεR1α.MMH (cynomolgus (Macaca fascicularis)); experiment: SPR (Biacore 8k), antibody captured on anti-human Fc, mfFcεR1α.MMH injected, 37°C
T2 construct: also called mfFceR1a.MMH; ectodomain of cynomolgus FcεR1α with C-term myc-myc-6×His tag
T2 chain: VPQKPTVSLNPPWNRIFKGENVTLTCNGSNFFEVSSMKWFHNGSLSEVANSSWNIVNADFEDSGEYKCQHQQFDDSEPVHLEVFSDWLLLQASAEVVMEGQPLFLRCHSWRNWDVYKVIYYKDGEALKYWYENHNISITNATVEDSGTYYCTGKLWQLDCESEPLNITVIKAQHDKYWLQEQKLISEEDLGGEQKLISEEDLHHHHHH
Experimental: as §1, §2

[3] = biological target: T3, monkey (cynomolgus) FcεR1α expressed on cells (cynomolgus); experiment: flow cytometry, 70 nM antibody on HEK293/mfFcεR1α/hFcεR1β/hFcεR1γ cells, No IgE
T3 construct: range 4-260; On HEK293 cells, co-expressed with human FcεR1β and FcεR1γ; also called mfFcεR1α; HEK293/mfFcεR1α/hFcεR1β/hFcεR1γ cells
Experimental: (§3) For flow cytometry analysis, HEK293, HEK293/hFcεR1α/hFcεR1β/hFcεR1γ and HEK293/mf FcεR1α/hFcεR1β/hFcεR1γ cells were collected after dissociation using Enzyme Free Dissociation Buffer (Millipore Cat# S-004), and the cells were pre-incubated with or without 70 nM human IgE, for 30 minutes on ice in FACS buffer (PBS, without Ca⁺⁺ and Mg⁺⁺, (Irvine Scientific, Cat#9240) containing 2% FBS). Jurkat/NFAT-luc cells were also collected. The antibodies at the concentration of 70 nM were then added to 1×10⁶ cells/well of each cell type at 4° C. for 30 minutes. […] Cells were fixed using BD CytoFix™ (Becton Dickinson, Cat. #554655) and analyzed on Accuri™ C6 (BD) or CytoFLEX Flow cytometer (Beckman Coulter). Unstained and secondary antibody alone controls were also tested for all cell lines and a sample was evaluated for viability using the Far Red Fluo viability dye (Thermo Fisher, Cat#L10120) according to the manufacturer's protocol. The results were analyzed using FlowJo software (version 10.0.8, FlowJo) to determine the geometric means of fluorescence for viable cells and the binding ratio was calculated with the mean fluorescence intensity (MFI) of the experimental condition normalized by the MFI of the unstained respective cells.

[4] = biological target: T4, human FcεR1α expressed on cells (human, UniProt P12319 26-257); experiment: flow cytometry, 70 nM antibody on HEK293/hFcεR1α/hFcεR1β/hFcεR1γ cells, No IgE
T4 construct: whole, on cells; Co-expressed with human FcεR1β (amino acids 1-244 of Uniprot Q01362-1) and FcεR1γ (amino acids 1-86 of Uniprot P30273-1); also called hFcεR1α; HEK293/hFcεR1α/hFcεR1β/hFcεR1γ cells
T4 sequence (looked up): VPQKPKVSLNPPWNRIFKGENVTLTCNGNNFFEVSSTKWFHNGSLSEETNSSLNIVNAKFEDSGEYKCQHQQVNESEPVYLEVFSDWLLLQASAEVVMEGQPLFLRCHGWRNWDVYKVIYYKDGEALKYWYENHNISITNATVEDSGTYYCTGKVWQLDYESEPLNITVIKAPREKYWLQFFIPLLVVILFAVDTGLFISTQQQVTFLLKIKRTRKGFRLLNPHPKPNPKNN
Experimental: as §3

[5] = biological target: T4, human FcεR1α expressed on cells; experiment: cell-based or functional assay
hFcεR1α.MMH [6] = biological target: T1, hFcεR1α.MMH; experiment: SPR (Biacore 8k), antibody captured on anti-human Fc, hFcεR1α.MMH injected, 37°C
Experimental: as §1, §2

mfFcεR1α.MMH [7] = biological target: T2, mfFcεR1α.MMH; experiment: SPR (Biacore 8k), antibody captured on anti-human Fc, mfFcεR1α.MMH injected, 25°C
Experimental: as §1, §2

[8] = biological target: T3, monkey (cynomolgus) FcεR1α expressed on …; experiment: flow cytometry, 70 nM antibody on HEK293/mfFcεR1α/hFcεR1β/hFcεR1γ cells pre-incubated with 70 nM human IgE
Experimental: as §3

[9] = biological target: T5, human CD3 expressed in Jurkat cells (human, UniProt P07766 23-207; P04234 22-171; P20963 22-164; P09693 23-182); experiment: cell-based or functional assay
[10] = biological target: T5, human CD3 expressed in Jurkat cells; experiment: flow cytometry, 70 nM antibody on Jurkat/NFAT-luc cells, No IgE
Experimental: as §3

[11] = biological target: T4, human FcεR1α expressed on cells; experiment: flow cytometry, 70 nM antibody on HEK293/hFcεR1α/hFcεR1β/hFcεR1γ cells pre-incubated with 70 nM human IgE
Experimental: as §3

[12] = biological target: T4, human FcεR1α expressed on cells; experiment: cell-based or functional assay; remark: listed apart in the source

T5 sequence (P07766 23-207 limits assumed, chain 1 of 4): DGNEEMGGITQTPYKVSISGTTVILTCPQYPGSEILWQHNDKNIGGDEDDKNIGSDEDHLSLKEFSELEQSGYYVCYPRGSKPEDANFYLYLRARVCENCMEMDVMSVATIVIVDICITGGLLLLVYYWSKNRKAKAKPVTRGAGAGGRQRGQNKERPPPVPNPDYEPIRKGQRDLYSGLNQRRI
T5 sequence (P04234 22-171 limits assumed, chain 2 of 4): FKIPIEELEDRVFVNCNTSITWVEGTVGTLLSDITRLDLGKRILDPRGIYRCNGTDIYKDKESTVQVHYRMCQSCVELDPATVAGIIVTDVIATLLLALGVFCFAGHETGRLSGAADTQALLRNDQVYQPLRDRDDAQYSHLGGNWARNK
T5 sequence (P20963 22-164 limits assumed, chain 3 of 4): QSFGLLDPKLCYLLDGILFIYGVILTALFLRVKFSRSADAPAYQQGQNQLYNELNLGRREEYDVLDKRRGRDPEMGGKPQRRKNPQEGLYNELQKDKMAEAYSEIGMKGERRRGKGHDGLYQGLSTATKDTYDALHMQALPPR
T5 sequence (P09693 23-182 limits assumed, chain 4 of 4): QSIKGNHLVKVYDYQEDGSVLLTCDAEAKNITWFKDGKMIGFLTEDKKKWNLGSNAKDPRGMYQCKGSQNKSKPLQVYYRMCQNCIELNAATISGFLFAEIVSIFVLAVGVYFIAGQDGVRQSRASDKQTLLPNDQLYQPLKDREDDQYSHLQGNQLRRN

B1: bsAb24919D (bispecific antibody, human IgG4 S228P, kappa)
heavy 1: QVQLQESGPGLVKPSETLSLTCTVSGDSISDYYWIWIRQPPGKGLEWIGYIYYSGSTNYNPSLKSRVTISVATSKNQFSLKLRSVTAADTAMYYCARRNNWNHVRAFDIWGQGTMVTVSSASTKGPSVFPLAPCSRSTSESTAALGCLVKDYFPEPVTVSWNSGALTSGVHTFPAVLQSSGLYSLSSVVTVPSSSLGTKTYTCNVDHKPSNTKVDKRVESKYGPPCPPCPAPPVAGPSVFLFPPKPKDTLMISRTPEVTCVVVDVSQEDPEVQFNWYVDGVEVHNAKTKPREEQFNSTYRVVSVLTVLHQDWLNGKEYKCKVSNKGLPSSIEKTISKAKGQPREPQVYTLPPSQEEMTKNQVSLTCLVKGFYPSDIAVEWESNGQPENNYKTTPPVLDSDGSFFLYSRLTVDKSRWQEGNVFSCSVMHEALHNHYTQKSLSLSLGK
heavy 2: EVQLVESGGGLVQPGRSLRLSCAASGFTFDDYSMHWVRQAPGKGLEWVSGISWNSGSIGYADSVKGRFTISRDNAKNSLYLQMNSLRAEDTALYYCAKYGSGYGKFYYYGMDVWGQGTTVTVSSASTKGPSVFPLAPCSRSTSESTAALGCLVKDYFPEPVTVSWNSGALTSGVHTFPAVLQSSGLYSLSSVVTVPSSSLGTKTYTCNVDHKPSNTKVDKRVESKYGPPCPPCPAPPVAGPSVFLFPPKPKDTLMISRTPEVTCVVVDVSQEDPEVQFNWYVDGVEVHNAKTKPREEQFNSTYRVVSVLTVLHQDWLNGKEYKCKVSNKGLPSSIEKTISKAKGQPREPQVYTLPPSQEEMTKNQVSLTCLVKGFYPSDIAVEWESNGQPENNYKTTPPVLDSDGSFFLYSRLTVDKSRWQEGNVFSCSVMHEALHNRFTQKSLSLSPGK
light: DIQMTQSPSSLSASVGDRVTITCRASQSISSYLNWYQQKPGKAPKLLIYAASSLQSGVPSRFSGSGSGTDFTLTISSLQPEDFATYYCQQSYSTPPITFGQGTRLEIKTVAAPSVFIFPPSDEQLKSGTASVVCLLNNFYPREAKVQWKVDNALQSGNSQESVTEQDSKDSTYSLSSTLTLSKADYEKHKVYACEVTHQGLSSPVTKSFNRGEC
notes: IgG4 Fc domain; two distinct heavy chains with a common light chain; also called anti-FcεR1α×CD3 bispecific antibody; FcεR1α × hCD3
B1 was tested, and the “600 nM hFcεR1α.MMH Bound (RU)” value (hFcεR1α.MMH [1]) was 72 RU, the Kd (hFcεR1α.MMH [1]) was 152 nM and the koff (hFcεR1α.MMH [1]) was 0.0104 s⁻¹. For the same binder, the kon (hFcεR1α.MMH [1]) was 68200 M⁻¹ s⁻¹, the t½ (hFcεR1α.MMH [1]) was 66 s and the “600 nM mfFceR1a.MMH Bound (RU)” value (mfFcεR1α.MMH [2]) was 20 RU. For the same binder, the Kd (mfFcεR1α.MMH [2]) was 1030 nM, the koff (mfFcεR1α.MMH [2]) was 0.0399 s⁻¹ and the kon (mfFcεR1α.MMH [2]) was 38600 M⁻¹ s⁻¹. For the same binder, the t½ (mfFcεR1α.MMH [2]) was 17.4 s, the “Binding Ratio (MFI of Treated/MFI of Unstained)” value [3] was 166 and the “Binding Ratio (MFI of Treated/MFI of Unstained)” value [4] was 269. For the same binder, the “EC50, decrease of primary human basophils within PBMC with activated CD8+ T cells” value [5] was 3.75 nM, the “Maximum percent basophil decrease, PBMC with activated CD8+ T cells” value [5] was 90.6% and the “600 nM hFcεR1α.MMH Bound (RU)” value (hFcεR1α.MMH [6]) was 43 RU. It also gave a Kd (hFcεR1α.MMH [6]) of 801 nM, a koff (hFcεR1α.MMH [6]) of 0.0588 s⁻¹ and a kon (hFcεR1α.MMH [6]) of 73500 M⁻¹ s⁻¹. The t½ (hFcεR1α.MMH [6]) was 12 s, the “600 nM mfFceR1a.MMH Bound (RU)” value (mfFcεR1α.MMH [7]) was 40 RU and the Kd (mfFcεR1α.MMH [7]) was 363 nM. The koff (mfFcεR1α.MMH [7]) was 0.0144 s⁻¹, the kon (mfFcεR1α.MMH [7]) was 39600 M⁻¹ s⁻¹ and the t½ (mfFcεR1α.MMH [7]) was 48 s. The “Binding Ratio (MFI of Treated/MFI of Unstained)” value [8] was 236, the “EC50 [M], NFAT-luciferase in Jurkat/NFAT-luc with HEK293/hFcεR1α/hFcεR1β/hFcεR1γ cells, 10 nM IgE” value [9] was 1.5e-09 M and the “EC50 [M], NFAT-luciferase in Jurkat/NFAT-luc with HEK293/hFcεR1α/hFcεR1β/hFcεR1γ cells, No IgE” value [9] was 3.4e-10 M. The “Fold Activation, Jurkat/NFAT-luc with HEK293/hFcεR1α/hFcεR1β/hFcεR1γ cells, 10 nM IgE” value [9] was 32 fold, the “Fold Activation, Jurkat/NFAT-luc with HEK293/hFcεR1α/hFcεR1β/hFcεR1γ cells, No IgE” value [9] was 32 fold and the “Binding Ratio (MFI of Treated/MFI of Unstained)” value [10] was 48. For the same binder, the “Binding Ratio (MFI of Treated/MFI of Unstained)” value [11] was 277, the “EC80, cleaved caspase 3+ cleaved PARP+ HEK293/hFcεR1α/hFcεR1β/hFcεR1γ target cells with activated CD8+ T cells” value [12] was 0.0346 nM and the “Maximum percent apoptotic cells, HEK293/hFcεR1α/hFcεR1β/hFcεR1γ target cells with activated CD8+ T cells” value [12] was 56%.
